Paper PMC9482650, “Quantitative fragmentomics allow affinity mapping of interactomes” (Nature Communications, 2022)

B1: LRRC4B, Q9NT99 (peptide)
chain: SKENVQETQI
B2: KCNJ1, P48048 (peptide)
chain: EVNETDDTKM
B3: KCNA1, Q09470 (peptide)
chain: VNKSKLLTDV
B4: BAZ1A, Q9NRL2 (peptide)
chain: TPPAAKKSRI
B5: CTNNA1, P35221 (peptide)
chain: LSEFKAMDSI

target: FRMPD2_2, Q68DX3; assay: holdup assay; design: key: below the threshold = too weak to quantify, mostly under pKd 3.1 to 4; conditions: plain residues with an end cap or a label only (N-terminal biotin on a linker: ado-ado)
Sequence (Q68DX3 944-1038): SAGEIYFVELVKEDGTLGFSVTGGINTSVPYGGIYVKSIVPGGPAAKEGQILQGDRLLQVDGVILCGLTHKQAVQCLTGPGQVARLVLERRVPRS

| Binder | pKd |
| --- | --- |
| B1 | 3.92 |
| B2 | below the threshold |
| B3 | below the threshold |
| B4 | below the threshold |
| B5 | below the threshold |

target: T1, PTPN13_1, Q12923; assay: holdup assay; design: key: below the threshold = too weak to quantify, mostly under pKd 3.1 to 4; conditions: plain residues with an end cap or a label only (N-terminal biotin on a linker: ado-ado)
T1 sequence (Q12923 1088-1188, limits assumed, looked up): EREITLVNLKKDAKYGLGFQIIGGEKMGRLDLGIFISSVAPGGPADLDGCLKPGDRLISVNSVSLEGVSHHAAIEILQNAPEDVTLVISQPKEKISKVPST

| Binder | pKd |
| --- | --- |
| B1 | below the threshold |
| B2 | below the threshold |
| B3 | below the threshold |
| B4 | below the threshold |
| B5 | below the threshold |

target: NHERF2_2, Q15599; assay: holdup assay; design: key: below the threshold = too weak to quantify, mostly under pKd 3.1 to 4; conditions: plain residues with an end cap or a label only (N-terminal biotin on a linker: ado-ado)
Sequence (Q15599 142-238): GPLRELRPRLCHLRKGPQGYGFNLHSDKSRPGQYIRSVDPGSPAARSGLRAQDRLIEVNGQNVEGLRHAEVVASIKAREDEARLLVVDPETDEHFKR

| Binder | pKd |
| --- | --- |
| B1 | 3.88 |
| B2 | 4.84 |
| B3 | below the threshold |
| B4 | 3.58 |
| B5 | below the threshold |

target: T2, APBA1_2, Q02410; assay: holdup assay; design: key: below the threshold = too weak to quantify, mostly under pKd 3.1 to 4; conditions: plain residues with an end cap or a label only (N-terminal biotin on a linker: ado-ado)
T2 sequence (Q02410 742-832, limits assumed, looked up): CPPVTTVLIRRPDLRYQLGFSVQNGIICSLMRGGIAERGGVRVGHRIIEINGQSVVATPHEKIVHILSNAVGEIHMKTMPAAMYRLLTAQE

| Binder | pKd |
| --- | --- |
| B1 | below the threshold |
| B2 | below the threshold |
| B3 | 3.56 |
| B4 | below the threshold |
| B5 | below the threshold |

target: LNX1_1, Q8TBB1; assay: holdup assay; design: key: below the threshold = too weak to quantify, mostly under pKd 3.1 to 4; conditions: plain residues with an end cap or a label only (N-terminal biotin on a linker: ado-ado)
Sequence (Q8TBB1 261-371): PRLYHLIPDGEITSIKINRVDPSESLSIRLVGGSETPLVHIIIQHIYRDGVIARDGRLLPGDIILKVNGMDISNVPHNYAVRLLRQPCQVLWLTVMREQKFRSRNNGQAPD

| Binder | pKd |
| --- | --- |
| B1 | below the threshold |
| B2 | 3.92 |
| B3 | below the threshold |
| B4 | below the threshold |
| B5 | below the threshold |

target: GRIP2_5, Q9C0E4; assay: holdup assay; design: key: below the threshold = too weak to quantify, mostly under pKd 3.1 to 4; conditions: plain residues with an end cap or a label only (N-terminal biotin on a linker: ado-ado)
Sequence (Q9C0E4 544-642): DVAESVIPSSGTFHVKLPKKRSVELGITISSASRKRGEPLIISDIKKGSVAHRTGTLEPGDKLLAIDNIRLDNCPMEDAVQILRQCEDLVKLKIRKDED

| Binder | pKd |
| --- | --- |
| B1 | below the threshold |
| B2 | below the threshold |
| B3 | below the threshold |
| B4 | below the threshold |
| B5 | below the threshold |

target: T3, SNTG2, Q9NY99; assay: holdup assay; design: key: below the threshold = too weak to quantify, mostly under pKd 3.1 to 4; conditions: plain residues with an end cap or a label only (N-terminal biotin on a linker: ado-ado)
T3 sequence (Q9NY99 68-166, limits assumed, looked up): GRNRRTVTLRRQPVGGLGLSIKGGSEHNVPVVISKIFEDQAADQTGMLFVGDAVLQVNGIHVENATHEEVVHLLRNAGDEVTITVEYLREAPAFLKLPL

| Binder | pKd |
| --- | --- |
| B1 | 4.81 |
| B2 | below the threshold |
| B3 | below the threshold |
| B4 | below the threshold |
| B5 | below the threshold |

target: GRIP2_3, Q9C0E4; assay: holdup assay; design: key: below the threshold = too weak to quantify, mostly under pKd 3.1 to 4; conditions: plain residues with an end cap or a label only (N-terminal biotin on a linker: ado-ado)
Sequence (Q9C0E4 238-339): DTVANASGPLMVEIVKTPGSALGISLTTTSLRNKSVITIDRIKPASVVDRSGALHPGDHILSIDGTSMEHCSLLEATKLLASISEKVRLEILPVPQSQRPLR

| Binder | pKd |
| --- | --- |
| B1 | below the threshold |
| B2 | 3.69 |
| B3 | below the threshold |
| B4 | below the threshold |
| B5 | below the threshold |

target: T4, TIAM2, Q8IVF5; assay: holdup assay; design: key: below the threshold = too weak to quantify, mostly under pKd 3.1 to 4; conditions: plain residues with an end cap or a label only (N-terminal biotin on a linker: ado-ado)
T4 sequence (Q8IVF5 885-986, limits assumed, looked up): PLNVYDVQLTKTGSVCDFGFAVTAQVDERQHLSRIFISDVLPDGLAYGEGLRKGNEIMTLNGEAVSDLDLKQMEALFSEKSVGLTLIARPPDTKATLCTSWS

| Binder | pKd |
| --- | --- |
| B1 | 4.1 |
| B2 | below the threshold |
| B3 | 3.95 |
| B4 | below the threshold |
| B5 | 3.48 |

target: CASK, O14936; assay: holdup assay; design: key: below the threshold = too weak to quantify, mostly under pKd 3.1 to 4; conditions: plain residues with an end cap or a label only (N-terminal biotin on a linker: ado-ado)
Sequence (O14936 487-570): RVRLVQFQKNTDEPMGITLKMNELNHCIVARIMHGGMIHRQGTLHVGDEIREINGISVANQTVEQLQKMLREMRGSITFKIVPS

| Binder | pKd |
| --- | --- |
| B1 | below the threshold |
| B2 | below the threshold |
| B3 | below the threshold |
| B4 | below the threshold |
| B5 | below the threshold |

target: T5, MPDZ_10, O75970; assay: holdup assay; design: key: below the threshold = too weak to quantify, mostly under pKd 3.1 to 4; conditions: plain residues with an end cap or a label only (N-terminal biotin on a linker: ado-ado)
T5 sequence (O75970 1624-1722, limits assumed, looked up): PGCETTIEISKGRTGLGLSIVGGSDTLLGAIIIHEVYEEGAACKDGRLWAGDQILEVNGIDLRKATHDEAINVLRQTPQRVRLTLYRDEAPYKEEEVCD

| Binder | pKd |
| --- | --- |
| B1 | below the threshold |
| B2 | below the threshold |
| B3 | below the threshold |
| B4 | 3.69 |
| B5 | below the threshold |

target: MAGI1_1, Q96QZ7; assay: holdup assay; design: key: below the threshold = too weak to quantify, mostly under pKd 3.1 to 4; conditions: plain residues with an end cap or a label only (N-terminal biotin on a linker: ado-ado)
Sequence (Q96QZ7 1-106): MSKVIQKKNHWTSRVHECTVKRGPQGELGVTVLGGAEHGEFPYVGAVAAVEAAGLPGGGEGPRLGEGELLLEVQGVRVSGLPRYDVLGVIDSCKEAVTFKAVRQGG

| Binder | pKd |
| --- | --- |
| B1 | below the threshold |
| B2 | below the threshold |
| B3 | below the threshold |
| B4 | below the threshold |
| B5 | below the threshold |

target: LAP2, Q96RT1; assay: holdup assay; design: key: below the threshold = too weak to quantify, mostly under pKd 3.1 to 4; conditions: plain residues with an end cap or a label only (N-terminal biotin on a linker: ado-ado)
Sequence (Q96RT1 other isoform, or with tags, fused parts or gaps): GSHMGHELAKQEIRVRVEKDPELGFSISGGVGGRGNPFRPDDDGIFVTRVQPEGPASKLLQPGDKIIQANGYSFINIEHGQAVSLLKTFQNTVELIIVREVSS

| Binder | pKd |
| --- | --- |
| B1 | 3.69 |
| B2 | 3.5 |
| B3 | below the threshold |
| B4 | below the threshold |
| B5 | below the threshold |

target: Inadl_2, Q8NI35; assay: holdup assay; design: key: below the threshold = too weak to quantify, mostly under pKd 3.1 to 4; conditions: plain residues with an end cap or a label only (N-terminal biotin on a linker: ado-ado)
Sequence (Q8NI35 238-335): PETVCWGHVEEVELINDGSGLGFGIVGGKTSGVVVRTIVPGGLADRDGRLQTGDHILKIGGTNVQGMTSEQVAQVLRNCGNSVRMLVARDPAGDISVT

| Binder | pKd |
| --- | --- |
| B1 | below the threshold |
| B2 | below the threshold |
| B3 | below the threshold |
| B4 | below the threshold |
| B5 | below the threshold |

target: LNX1_2, Q8TBB1; assay: holdup assay; design: key: below the threshold = too weak to quantify, mostly under pKd 3.1 to 4; conditions: plain residues with an end cap or a label only (N-terminal biotin on a linker: ado-ado)
Sequence (Q8TBB1 371-470): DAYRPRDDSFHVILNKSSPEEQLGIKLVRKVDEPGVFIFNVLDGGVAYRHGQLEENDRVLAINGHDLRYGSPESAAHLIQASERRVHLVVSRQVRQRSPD

| Binder | pKd |
| --- | --- |
| B1 | below the threshold |
| B2 | below the threshold |
| B3 | below the threshold |
| B4 | below the threshold |
| B5 | below the threshold |

target: T6, NHERF3_1, Q5T2W1; assay: holdup assay; design: key: below the threshold = too weak to quantify, mostly under pKd 3.1 to 4; conditions: plain residues with an end cap or a label only (N-terminal biotin on a linker: ado-ado)
T6 sequence (Q5T2W1 4-100, limits assumed, looked up): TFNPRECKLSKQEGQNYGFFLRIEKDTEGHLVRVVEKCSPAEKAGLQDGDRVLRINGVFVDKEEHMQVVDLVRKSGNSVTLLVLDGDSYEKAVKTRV

| Binder | pKd |
| --- | --- |
| B1 | 5.07 |
| B2 | 5.39 |
| B3 | below the threshold |
| B4 | below the threshold |
| B5 | below the threshold |

target: T7, APBA2_1, Q99767; assay: holdup assay; design: key: below the threshold = too weak to quantify, mostly under pKd 3.1 to 4; conditions: plain residues with an end cap or a label only (N-terminal biotin on a linker: ado-ado)
T7 sequence (Q99767 563-664, limits assumed, looked up): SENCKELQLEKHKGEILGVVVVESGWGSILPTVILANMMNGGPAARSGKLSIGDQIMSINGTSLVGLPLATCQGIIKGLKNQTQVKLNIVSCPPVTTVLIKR

| Binder | pKd |
| --- | --- |
| B1 | below the threshold |
| B2 | below the threshold |
| B3 | below the threshold |
| B4 | below the threshold |
| B5 | below the threshold |

target: FRMPD2_3, Q68DX3; assay: holdup assay; design: key: below the threshold = too weak to quantify, mostly under pKd 3.1 to 4; conditions: plain residues with an end cap or a label only (N-terminal biotin on a linker: ado-ado)
Sequence (Q68DX3 1073-1166): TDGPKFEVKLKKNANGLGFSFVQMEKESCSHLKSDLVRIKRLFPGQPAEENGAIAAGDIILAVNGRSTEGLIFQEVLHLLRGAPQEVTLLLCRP

| Binder | pKd |
| --- | --- |
| B1 | below the threshold |
| B2 | below the threshold |
| B3 | below the threshold |
| B4 | below the threshold |
| B5 | below the threshold |

target: T8, PDZRN3_1, Q9UPQ7; assay: holdup assay; design: key: below the threshold = too weak to quantify, mostly under pKd 3.1 to 4; conditions: plain residues with an end cap or a label only (N-terminal biotin on a linker: ado-ado)
T8 sequence (Q9UPQ7 244-349, limits assumed, looked up): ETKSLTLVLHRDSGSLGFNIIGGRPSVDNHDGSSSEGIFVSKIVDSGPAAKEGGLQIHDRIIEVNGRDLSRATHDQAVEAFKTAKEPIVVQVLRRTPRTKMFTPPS

| Binder | pKd |
| --- | --- |
| B1 | 4.19 |
| B2 | below the threshold |
| B3 | below the threshold |
| B4 | below the threshold |
| B5 | below the threshold |

target: TJP1_3, Q07157; assay: holdup assay; design: key: below the threshold = too weak to quantify, mostly under pKd 3.1 to 4; conditions: plain residues with an end cap or a label only (N-terminal biotin on a linker: ado-ado)
Sequence (Q07157 416-512): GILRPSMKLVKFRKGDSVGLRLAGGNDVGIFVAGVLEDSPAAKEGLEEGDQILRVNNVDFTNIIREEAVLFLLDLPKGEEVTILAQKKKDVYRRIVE

| Binder | pKd |
| --- | --- |
| B1 | below the threshold |
| B2 | below the threshold |
| B3 | below the threshold |
| B4 | below the threshold |
| B5 | below the threshold |

target: T9, DLG3_3, Q92796; assay: holdup assay; design: key: below the threshold = too weak to quantify, mostly under pKd 3.1 to 4; conditions: plain residues with an end cap or a label only (N-terminal biotin on a linker: ado-ado)
T9 sequence (Q92796 374-475, limits assumed, looked up): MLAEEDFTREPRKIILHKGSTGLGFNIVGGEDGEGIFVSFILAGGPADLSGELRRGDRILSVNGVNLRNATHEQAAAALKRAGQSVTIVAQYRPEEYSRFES

| Binder | pKd |
| --- | --- |
| B1 | 3.68 |
| B2 | below the threshold |
| B3 | below the threshold |
| B4 | below the threshold |
| B5 | below the threshold |

target: T10, PARD3B_1, Q8TEW8; assay: holdup assay; design: key: below the threshold = too weak to quantify, mostly under pKd 3.1 to 4; conditions: plain residues with an end cap or a label only (N-terminal biotin on a linker: ado-ado)
T10 sequence (Q8TEW8 196-299, limits assumed, looked up): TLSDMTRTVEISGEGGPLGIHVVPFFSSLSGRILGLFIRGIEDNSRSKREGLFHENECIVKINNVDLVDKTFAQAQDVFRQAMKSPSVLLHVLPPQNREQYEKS

| Binder | pKd |
| --- | --- |
| B1 | below the threshold |
| B2 | below the threshold |
| B3 | below the threshold |
| B4 | below the threshold |
| B5 | below the threshold |

target: GRIP2_4, Q9C0E4; assay: holdup assay; design: key: below the threshold = too weak to quantify, mostly under pKd 3.1 to 4; conditions: plain residues with an end cap or a label only (N-terminal biotin on a linker: ado-ado)
Sequence (Q9C0E4 446-548): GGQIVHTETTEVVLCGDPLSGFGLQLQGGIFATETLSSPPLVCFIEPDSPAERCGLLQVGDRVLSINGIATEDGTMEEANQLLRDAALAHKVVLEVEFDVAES

| Binder | pKd |
| --- | --- |
| B1 | below the threshold |
| B2 | below the threshold |
| B3 | below the threshold |
| B4 | below the threshold |
| B5 | below the threshold |

target: GORASP1, Q9BQQ3; assay: holdup assay; design: key: below the threshold = too weak to quantify, mostly under pKd 3.1 to 4; conditions: plain residues with an end cap or a label only (N-terminal biotin on a linker: ado-ado)
Sequence (Q9BQQ3 1-208): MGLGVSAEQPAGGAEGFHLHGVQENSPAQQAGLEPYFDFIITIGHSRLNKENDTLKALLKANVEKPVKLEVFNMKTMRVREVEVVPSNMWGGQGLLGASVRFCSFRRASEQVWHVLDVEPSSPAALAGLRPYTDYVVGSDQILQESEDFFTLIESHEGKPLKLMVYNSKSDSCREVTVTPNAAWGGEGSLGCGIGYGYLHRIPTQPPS

| Binder | pKd |
| --- | --- |
| B1 | below the threshold |
| B2 | below the threshold |
| B3 | below the threshold |
| B4 | below the threshold |
| B5 | below the threshold |

target: PARD3_3, Q8TEW0; assay: holdup assay; design: key: below the threshold = too weak to quantify, mostly under pKd 3.1 to 4; conditions: plain residues with an end cap or a label only (N-terminal biotin on a linker: ado-ado)
Sequence (Q8TEW0 582-685): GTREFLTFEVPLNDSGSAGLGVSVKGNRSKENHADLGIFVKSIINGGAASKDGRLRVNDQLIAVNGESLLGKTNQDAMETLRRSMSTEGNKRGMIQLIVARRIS

| Binder | pKd |
| --- | --- |
| B1 | 3.78 |
| B2 | below the threshold |
| B3 | below the threshold |
| B4 | below the threshold |
| B5 | below the threshold |

target: GRIP2_6, Q9C0E4; assay: holdup assay; design: key: below the threshold = too weak to quantify, mostly under pKd 3.1 to 4; conditions: plain residues with an end cap or a label only (N-terminal biotin on a linker: ado-ado)
Sequence (Q9C0E4 648-740): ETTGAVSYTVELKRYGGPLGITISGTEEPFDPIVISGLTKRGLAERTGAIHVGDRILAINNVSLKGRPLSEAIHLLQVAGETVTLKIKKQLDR

| Binder | pKd |
| --- | --- |
| B1 | below the threshold |
| B2 | 3.52 |
| B3 | below the threshold |
| B4 | below the threshold |
| B5 | below the threshold |

target: HTRA2, O43464; assay: holdup assay; design: key: below the threshold = too weak to quantify, mostly under pKd 3.1 to 4; conditions: plain residues with an end cap or a label only (N-terminal biotin on a linker: ado-ado)
Sequence (O43464 355-458): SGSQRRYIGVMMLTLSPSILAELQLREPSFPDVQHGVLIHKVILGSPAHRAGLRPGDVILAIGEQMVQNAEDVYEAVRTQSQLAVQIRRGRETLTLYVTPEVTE

| Binder | pKd |
| --- | --- |
| B1 | below the threshold |
| B2 | below the threshold |
| B3 | below the threshold |
| B4 | below the threshold |
| B5 | below the threshold |
